The source of these data is patent US20160274129.

The target of this series is T1, α-fructosyl-valyl-histidyl-leucyl-threonyl-proryl-glutamic acid.
T1 chain: VHLTPE

B1: PnFX (protein)
chain: MAPSRANTSVIVVGGGGTIGSSTALHLVRSGYTPSNVTVLDAYPIPSSQSAGNDLNKIMGVSLRNPVDLQLALEARQMWNEDELFKKFFHNTGRLDCAHGEKDIADLKSGYQALVDAGLDATNEWLDSEDEILKRMPLLSRDQIKGWKAIFSKDGGWLAAAKAINAVGEYLRDQGVRFGFYGAGSFKAPLLAEGVCIGVETVDGTRYYADKVVLAAGAWSPTLVELHEQCVSKAWVYGHIQLTPEEAARYKNSPVVYNGDVGFFFEPNEHGVIKVCDEFPGFTRFKMHQPFGAKAPKRISVPRSHAKHPTDTIPDASDVSIRRAIATFMPQFKNKKMFNQAMCWCTDTADAALLICEHPEWKNFVLATGDSGHSFKLLPNIGKHVVELLEGTLADDLAHAWRWRPGSGDALKSRRSAPAKDLADMPGWNHDKPRANL
Protein B1 returned a Specific activity (U/mg), 1 mM αF6P, purified enzyme of 0.0091 U/mg.

B2: PnFX-62D/106K/110L/113K (protein)
chain: MAPSRANTSVIVVGGGGTIGSSTALHLVRSGYTPSNVTVLDAYPIPSSQSAGNDLNKIMGVDLRNPVDLQLALEARQMWNEDELFKKFFHNTGRLDCAHGEKDIAKLKSLYQKLVDAGLDATNEWLDSEDEILKRMPLLSRDQIKGWKAIFSKDGGWLAAAKAINAVGEYLRDQGVRFGFYGAGSFKAPLLAEGVCIGVETVDGTRYYADKVVLAAGAWSPTLVELHEQCVSKAWVYGHIQLTPEEAARYKNSPVVYNGDVGFFFEPNEHGVIKVCDEFPGFTRFKMHQPFGAKAPKRISVPRSHAKHPTDTIPDASDVSIRRAIATFMPQFKNKKMFNQAMCWCTDTADAALLICEHPEWKNFVLATGDSGHSFKLLPNIGKHVVELLEGTLADDLAHAWRWRPGSGDALKSRRSAPAKDLADMPGWNHDKPRANL
In the case of B2, the Specific activity (U/mg), 1 mM αF6P, purified enzyme stood at 0.125 U/mg and the “fold of specific activity on αF6P against PnFX before mutation” value is “specific activity on αF6P was elevated by 13.7 fold”.

B3: PnFX-62D/63H/106K/110L/113K/351S (protein)
chain: MAPSRANTSVIVVGGGGTIGSSTALHLVRSGYTPSNVTVLDAYPIPSSQSAGNDLNKIMGVDHRNPVDLQLALEARQMWNEDELFKKFFHNTGRLDCAHGEKDIAKLKSLYQKLVDAGLDATNEWLDSEDEILKRMPLLSRDQIKGWKAIFSKDGGWLAAAKAINAVGEYLRDQGVRFGFYGAGSFKAPLLAEGVCIGVETVDGTRYYADKVVLAAGAWSPTLVELHEQCVSKAWVYGHIQLTPEEAARYKNSPVVYNGDVGFFFEPNEHGVIKVCDEFPGFTRFKMHQPFGAKAPKRISVPRSHAKHPTDTIPDASDVSIRRAIATFMPQFKNKKMFNQAMCWCTDTADSALLICEHPEWKNFVLATGDSGHSFKLLPNIGKHVVELLEGTLADDLAHAWRWRPGSGDALKSRRSAPAKDLADMPGWNHDKPRANL
In the case of B3, the Specific activity (U/mg), 1 mM αF6P, purified enzyme was determined as 0.667 U/mg.

B4: AnFX-61D/62H/101K/105K/109L/112K/355S (protein)
chain: MTPRANTKIIVVGGGGTMGSSTALHLLRAGYTPSNITVLDTCPIPSAQSAGYDLNKIMGIDHRNKPDLQLSLEALDMWKNDPLFKPFFHNVGMIDVSSTEKGIEKLRKLYQKLLDAGIGLEKTNFMLESEDEILAKAPHFTQEQIKGWKGLFCGDGGWLAAAKAINAIGQFLKEQGVKFGFGGAGTFKKPLFADAHEKTCIGVETVDGTKYYADKVVLAAGAWSSTLVDLEEQCVSKAWVFAHIQLTPAEAAAYKNTPVIYDGDYGFFFEPNENGIIKVCDEFPGFTHFKMHQPYGSPAPKPISVPRSHAKHPTDTYPHASEVTIKKAINRFLPRFNDKELFNRAMCWCTDTADSNLLVCEHPRWKGFYLATGDSGHSFKLLPNIGKHVVELLEERLESVFKDAWRWRPGSGDALKSRRAAPAKDLADMPGWRNEAKM
B4 showed a Specific activity (U/mg), 1 mM αF6P, purified enzyme of 0.283 U/mg.
